Test results reported in article PMC3785238 (Cell, 2013).
Non-standard residues stand in square brackets, D forms with d. No end group written: not given here. pT = C[C@@H](OP(=O)(O)O)[C@H](N)C(=O)O; pS = N[C@@H](COP(=O)(O)O)C(=O)O

B1: mGluR5 peptide spanning the Homer/Pin1 binding site, bacterially expressed, phosphorylated at T1123 and S1126 (peptide)
chain: KELVAL[pT]PP[pS]PFRD
B2: mGluR5 peptide spanning the Homer/Pin1 binding site, bacterially expressed, phosphorylated at S1126 (peptide)
chain: KELVALTPP[pS]PFRD
B3: WW domain of Pin1 (domain or fragment, UniProt Q13526 5-39, looked up)
chain: EKLPPGWEKRMSRSSGRVYYFNHITNASQWERPSG

How the values were obtained:
[1] = target: Homer1a, full length, recombinant; assay: ITC + NMR titration
[2] = target: Homer1a, full length, recombinant; assay: ITC
[3] = target: T1, Homer1c, full-length, recombinant (UniProt Q9Z214 1-366); assay: ITC
T1 sequence (looked up): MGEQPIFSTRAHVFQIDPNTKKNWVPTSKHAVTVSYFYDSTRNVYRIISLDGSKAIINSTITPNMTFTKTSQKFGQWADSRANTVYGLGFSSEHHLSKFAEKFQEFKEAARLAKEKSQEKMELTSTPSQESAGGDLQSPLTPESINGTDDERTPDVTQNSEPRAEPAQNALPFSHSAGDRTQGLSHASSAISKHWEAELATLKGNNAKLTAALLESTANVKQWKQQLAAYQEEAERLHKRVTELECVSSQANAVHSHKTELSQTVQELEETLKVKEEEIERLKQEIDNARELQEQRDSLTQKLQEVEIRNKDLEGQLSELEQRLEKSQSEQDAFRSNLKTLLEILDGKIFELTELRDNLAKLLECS

[4] = target: B1

## B1
[1]
  Kd, calc cis: 160 nM
  Kd, calc trans: 760 nM
[2]
  Kd: 470 ± 100 nM

## B2
[1]
  Kd, calc cis: 670 nM
  Kd, calc trans: 2190 nM
[3]
  Kd: 1910 ± 190 nM
[2]
  Kd: 1560 ± 160 nM

## B3
[4]
  Kd: 10700 ± 200 nM
